We go through six molecules from patent US20250277029A1 (Amgen, published 2025).

Test [1] deals with T1, human cannabinoid receptor 1 (huCB1), full length, expressed on cells (human, UniProt P21554 1-472).
T1 construct: Used for all assays on cells: stably transfected CHO / CHOK1 cells (cAMP assays) and transiently transfected HEK 293T cells (KinExA, FACS); also called Full length hu CB1; wt huCB1
The test is described as follows: KinExA on-cell ranking, HEK 293T cells expressing full length CB1; %IFF of LIBC523661 divided by %IFF of antibody.

Another test has as its target T2, huCB1 nanodisc (CB1-ND) (human, UniProt P21554 99-414).
T2 construct: The His-tagged CB1 is embedded in a POPC lipid nanodisc with MSP1D1 scaffold protein (molar ratio 480:8:1); also called huCB1-ND; #CB1-008
Briefly: Octet BLI; antibody captured by anti-human Fc, CB1-nanodisc in solution, 1:1 model. (Biolayer interferometry detects binding as a change in optical thickness at a sensor tip.)

Test [2] addresses T1, human cannabinoid receptor 1 (huCB1), …. The test is described as follows: cell-based or functional assay.
Test [3] shares this target. The test is described as follows: cell-based or functional assay. This is another data set of the same source.
Test [4] shares this target. The test is described as follows: cell-based or functional assay. This is another data set of the same source.
Test [5] has the same target. The test is described as follows: cell-based or functional assay. The source holds these as a separate data set.
Test [6] shares this target. Briefly: cell-based or functional assay. This is another data set of the same source.
Test [7] shares this target. Briefly: cell-based or functional assay. This is another data set of the same source.
Test [8] has the same target. Briefly: cell-based or functional assay. The source holds these as a separate data set.
Test [9] has the same target. Briefly: KinExA on-cell ranking, HEK 293T cells expressing full length CB1; reference antibody of the ratio. Background: Kinetic exclusion samples the free partner from a solution-phase mixture.
Test [10] has as its target T3, mouse CB1 (mouse, UniProt P47746 1-473).
T3 construct: also called muCB1; murine CB1
Briefly: binding to muCB1, fold over mock (method not described).

The target in test [11] is T4, human cannabinoid receptor type 2 (CB2) (human, UniProt P34972 1-360).
T4 construct: also called huCB2; full length hu CB2
T4 sequence (P34972 whole entry): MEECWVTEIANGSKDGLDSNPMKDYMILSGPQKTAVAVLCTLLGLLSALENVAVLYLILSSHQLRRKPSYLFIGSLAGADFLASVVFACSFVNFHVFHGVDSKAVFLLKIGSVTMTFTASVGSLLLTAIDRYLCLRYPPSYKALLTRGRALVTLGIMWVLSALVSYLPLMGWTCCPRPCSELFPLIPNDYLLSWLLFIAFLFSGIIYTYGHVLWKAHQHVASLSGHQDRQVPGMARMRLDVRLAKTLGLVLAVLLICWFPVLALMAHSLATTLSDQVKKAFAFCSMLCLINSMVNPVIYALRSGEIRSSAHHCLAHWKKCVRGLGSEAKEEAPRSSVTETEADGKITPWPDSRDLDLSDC
Briefly: binding to huCB2, fold over mock (method not described).

Test [12] has as its target T5, His-tagged huCB1-ND (human CB1 in nanodisc) (human).
T5 construct: CB1 construct of Cell 167(3) (2016) 750-762 expressed in Sf9 cells; POPC:MSP1D1:CB1 480:8:1; also called CB1-nanodisc; huCB1-Nanodisc; not shown: histidine purification tag
The test is described as follows: flow cytometry, yeast-displayed IgG, huCB1-ND over empty-ND. A general note: In flow cytometry, cells or beads pass a laser one at a time.

Test [13] addresses T6, GFP-fused huCB1-SMALP (human CB1 in styrene maleic acid lipoparticles) (human, UniProt P21554 1-472).
T6 construct: Prepared as in Luna V. et al. 2018; also called huCB1-GFP-SMALP; wtCB1-SMALP; not shown: GFP fusion
The test is described as follows: flow cytometry, yeast-displayed IgG, GFP MFI.

For test [14], the target named is T5, His-tagged huCB1-ND (human CB1 in …). The test is described as follows: flow cytometry, yeast-displayed IgG, binding/display ratio.
Test [15] concerns the target T7, full length human CB1 expressed on cells (human, UniProt P21554 1-472).
T7 construct: also called huCB1; full length hu CB1
The test is described as follows: KinExA, on HEK 293T cells expressing full length CB1.

Test [16] has as its target T3, mouse CB1. Briefly: fold over mock (Table 14).
For test [17], the target named is T4, human cannabinoid receptor type 2 (CB2). Briefly: fold over mock (Table 14).
Test [18] concerns the target T3, mouse CB1. The test is described as follows: FACS on transfected HEK293T cells.
Test [19] addresses T4, human cannabinoid receptor type 2 (CB2). The test is described as follows: FACS on transfected HEK293T cells.

Where a chain is given by its changes, count along the chain named.

As a reminder, the Kd is the constant that tells how readily two partners part at equilibrium. Read a high Kd as weaker binding. By koff is commonly meant the rate constant with which the complex falls apart. High values mean fast dissociation, low ones slow dissociation. A word on the kon: it is the rate constant with which the complex forms. A low value points to slow association. The term IC50 denotes the concentration at which inhibition is half-maximal. Read a high IC50 as lower potency.

T2 sequence (P21554 99-414 limits assumed): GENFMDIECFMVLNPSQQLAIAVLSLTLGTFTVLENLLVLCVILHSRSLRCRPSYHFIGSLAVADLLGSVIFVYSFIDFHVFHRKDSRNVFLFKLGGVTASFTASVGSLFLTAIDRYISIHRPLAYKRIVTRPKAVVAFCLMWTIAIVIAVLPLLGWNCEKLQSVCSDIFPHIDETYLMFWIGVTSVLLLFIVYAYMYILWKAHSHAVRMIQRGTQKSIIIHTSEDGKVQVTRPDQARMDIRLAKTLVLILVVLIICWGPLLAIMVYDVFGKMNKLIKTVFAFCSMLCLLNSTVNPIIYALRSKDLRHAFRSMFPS
T1 sequence (P21554 whole entry): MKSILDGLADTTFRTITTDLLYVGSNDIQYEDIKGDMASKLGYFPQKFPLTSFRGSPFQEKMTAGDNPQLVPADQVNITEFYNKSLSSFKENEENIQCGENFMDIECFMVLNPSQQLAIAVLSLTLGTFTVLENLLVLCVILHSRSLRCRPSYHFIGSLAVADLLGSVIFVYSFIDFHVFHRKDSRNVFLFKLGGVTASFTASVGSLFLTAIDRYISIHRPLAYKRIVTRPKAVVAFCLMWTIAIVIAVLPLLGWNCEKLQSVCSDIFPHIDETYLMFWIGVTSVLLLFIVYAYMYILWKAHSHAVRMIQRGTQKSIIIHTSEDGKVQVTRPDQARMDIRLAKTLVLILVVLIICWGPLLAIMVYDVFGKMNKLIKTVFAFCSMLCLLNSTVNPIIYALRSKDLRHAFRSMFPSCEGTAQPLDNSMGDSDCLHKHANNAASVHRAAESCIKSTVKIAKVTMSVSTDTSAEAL
T3 sequence (P47746 whole entry): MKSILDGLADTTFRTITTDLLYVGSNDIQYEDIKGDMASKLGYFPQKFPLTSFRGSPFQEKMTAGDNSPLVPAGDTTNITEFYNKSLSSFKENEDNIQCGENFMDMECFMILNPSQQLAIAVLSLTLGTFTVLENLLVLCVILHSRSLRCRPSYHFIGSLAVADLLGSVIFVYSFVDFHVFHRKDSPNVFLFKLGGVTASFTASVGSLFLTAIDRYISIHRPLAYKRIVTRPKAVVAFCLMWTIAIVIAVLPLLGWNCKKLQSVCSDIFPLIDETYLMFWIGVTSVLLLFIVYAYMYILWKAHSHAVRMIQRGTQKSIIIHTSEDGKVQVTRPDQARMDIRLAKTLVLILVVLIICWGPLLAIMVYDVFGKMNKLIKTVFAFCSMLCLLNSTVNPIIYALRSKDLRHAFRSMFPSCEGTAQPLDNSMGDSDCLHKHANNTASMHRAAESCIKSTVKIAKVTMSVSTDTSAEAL
T5 sequence (P21554 99-414): as the sequence (P21554 99-414 limits assumed) above
T6 sequence (P21554 whole entry, the tested form may be a part): as the sequence (P21554 whole entry) above
T7 sequence (P21554 whole entry): as above

B1: LIBC527814-1 (antibody, V domains shown)
VH: QVQLQESGPGLVKPSQTLSLTCTVSGGSIRRGGDYWGWIRQHPGKGLEWIGHVYQTGSTKYNPSFKDRATISVNTYKNQFSLKLSSVTAADTAVYYCARNYDTLTGYSYYYYGMDVWGQGTTVTVSS
VL: DIQMTQSPSTLSASVGDRVTITCRASQSISNYLNWYQQKPGKAPKLLIYAASSLHSGVPSRFSGSGSGTDFTLTISSLQPEDFASYYCQQYQSYPLTFGQGTKVEIKR
notes: Expressed as IgG1 SEFL2 mAb
In the case of B1, the “Relative binding (KinExA, on cell; vs LIBC523661 mAb)” value in test [1] came to 1.9 ratio. Also, in the test with huCB1 nanodisc (CB1-ND), the Kd was found to be 35 nM, the dissociation rate constant (koff) turned out to be 0.00198 s⁻¹ and the kon was determined as 56600 M⁻¹ s⁻¹. Further, in [2], the “IC50, nM (CP agonist)” value came out at 2.1 nM. Also, in test [3], the “Mean IC50 (nM), cAMP antagonist assay” value is 2.97 nM; the “Mean IC50, -fold vs Rimo” value was 0.99 fold vs Rimonabant; the “n = 1 IC50 (nM), cAMP antagonist assay” value turned out to be 4.72 nM; the “n = 1 IC50, -fold vs Rimo” value worked out at 1.12 fold vs Rimonabant. For the same molecule, in test [3], the “n = 2 IC50 (nM), cAMP antagonist assay” value is 1.22 nM and the “n = 2 IC50, -fold vs Rimo” value was found to be 0.68 fold vs Rimonabant. In addition, the “Mean IC50 (nM, n = 3), cAMP antagonist assay” value in test [4] came out at 2.07 nM. For the same molecule, the “IC50 (nM), antagonist assay” value in test [5] was determined as 3.8 nM.

B2: LIBC528116-1 (antibody, V domains shown)
VH: B1 VH with G37A, Q55Y, K60N, S64R, L104V
VL: B1 VL with M4L
notes: Expressed as IgG1 SEFL2 mAb; also called 37940-4
The molecule B2 came in with a Kd with huCB1 nanodisc (CB1-ND) of 29 nM. The “IC50, nM (CP agonist)” value in test [2] came to 1.8 nM. Moreover, in test [6], the “Antagonist assay IC50 (nM), 2-AG” value came to 7.2 nM; the “Antagonist assay IC50 (nM), Anandamide” value was 17 nM; the “Antagonist assay IC50 (nM), CP 55,940” value came to 1.8 nM; the “Inverse agonist assay IC50” value was found to be 31.7 nM. In addition, in test [3], the “Mean IC50 (nM), cAMP antagonist assay” value was found to be 2.4 nM; the “n = 1 IC50 (nM), cAMP antagonist assay” value is 3.93 nM; the “n = 2 IC50 (nM), cAMP antagonist assay” value was 0.88 nM. Also, in test [4], the “Mean IC50 (nM, n = 3), cAMP antagonist assay” value amounted to 1.77 nM. For the same molecule, the “IC50” value in [7] was 2.7 nM.

B3: 10D10 (antibody, V domains shown)
VH: QVQLQESGPGLVKPSQTLSLTCTVSGGSIRRGGDYWSWIRQHPGKGLEWIGYIYYSGSTNYNPSLKSRATISVDTSKNQFSLKLSSVTAADTAVYYCARDYDILTGYSYYYYGMDVWGQGTTVTVSS
VL: not shown
notes: Parent antibody from XenoMouse; also called 10D10 antibody
As for B3, in the test with huCB1 nanodisc (CB1-ND), the Kd is 755 nM. The “IC50, nM (CP agonist)” value in test [2] came out at 121 nM. In test [6], the “Antagonist assay IC50 (nM), 2-AG” value was found to be 178 nM; the “Antagonist assay IC50 (nM), Anandamide” value was 6040 nM; the “Antagonist assay IC50 (nM), CP 55,940” value was 120 nM; the “Inverse agonist assay IC50” value came out at 295 nM. Besides, in test [3], the “Mean IC50 (nM), cAMP antagonist assay” value was found to be 80.8 nM; the “n = 1 IC50 (nM), cAMP antagonist assay” value came to 118 nM; the “n = 2 IC50 (nM), cAMP antagonist assay” value was 43.4 nM. Also, in test [8], the “IC50, nM (TR-FRET cAMP assay, CP55,940 and Forskolin)” value was found to be 120 nM. The “Mean IC50 (nM, n = 3), cAMP antagonist assay” value in test [4] worked out at 120 nM. Besides, the “IC50 (nM), antagonist assay” value in [5] is 144 nM.

B4: LIBC523661-1 (antibody, V domains shown)
VH: B1 VH with G37S, V53I, Q55Y, T56E, D67G, N100D, T103P, L104V, Y107H
VL: DIVMTQSPLSLPVTPGEPASISCRSSQSLLTSSGYNYVDWYLQKPGQSPQLLIYQGSNRASGVPDRFSGSGSGTDFTLKISRVEAEDVGVYYCRQARAIPRTFGQGTKVEIKR
notes: Expressed as IgG1 SEFL2 mAb
In the test with huCB1 nanodisc (CB1-ND), B4 had a Kd of 77 nM, an off-rate constant (koff) of 0.00275 s⁻¹ and a kon of 35700 M⁻¹ s⁻¹. Further, in test [2], the “IC50, nM (CP agonist)” value amounted to 3.9 nM. For the same molecule, in test [3], the “Mean IC50 (nM), cAMP antagonist assay” value turned out to be 3.3 nM; the “Mean IC50, -fold vs Rimo” value worked out at 1.1 fold vs Rimonabant; the “n = 1 IC50 (nM), cAMP antagonist assay” value was 5.24 nM; the “n = 1 IC50, -fold vs Rimo” value is 1.24 fold vs Rimonabant. Also, in test [3], the “n = 2 IC50 (nM), cAMP antagonist assay” value came out at 1.35 nM and the “n = 2 IC50, -fold vs Rimo” value was 0.75 fold vs Rimonabant. Also, the “Relative binding (KinExA, on cell; vs LIBC523661 mAb)” value in [9] amounted to 1 ratio. For the same molecule, the “Mean IC50 (nM, n = 3), cAMP antagonist assay” value in test [4] was found to be 3.88 nM.

B5: LIBC523661-1 (antibody, IgG1, V domains shown)
VH: B1 VH with G37S, V53I, Q55Y, T56E, D67G, N100D, T103P, L104V, Y107H
VL: B4 VL
For B5, the values for the Fold over mock (in the test with mouse CB1 [10]; in [11]) were 0.7 fold and 0.8 fold, respectively. Moreover, the “specific huCB1 binding (CB1 ND/Empty ND ratio)” value in test [12] came out at 9.32 ratio. Besides, the “100 nM huCB1-SMALP binding (normalized to 10D10)” value in test [13] stood at 8 fold. In addition, the “relative binding to 0.2 nM huCB1-ND (relative to 10D10N35Y)” value in [14] was 4.03 fold. The Kd in test [15] was 0.064 nM. Also, the binding result (with mouse CB1 [16]; in test [17]) was “no binding” each time.

B6: LIBC560657-1 (antibody, V domains shown)
VH: QVQLRESGPGLVKPSQTLSLICIVSGGSIRRGGDYWNWIRQHPGKGLEWIGHIYYTGTKYYNPSLKSRVTISVDTSKNQFSLKLSSVTAADTAVYYCARGYDSSGYSYYYYGMDVWGQGTTVTVSS
VL: DIVMTQSPLSLPVTPGEPASISCRSSQSLLYSNGHNYLDWYLQKPGQSPQLLIYLGSNRAPGVPDRFSGSGSGTDFTLKISRVEAEDVGVYFCMQALQTPRTFGGGTKVEIKR
Consider B6, for which the binding result (with mouse CB1 [18]; in [19]) was “no binding” throughout.
